B1: library; numbered along this chain (parent)
chain: MAAAAAAAAEQQSSNGPVKKSMREKAVERRSVNKEHNSNFKAGYIPIDEDRLHKTGLRGRKGNLAICVIILLFILAVINLIITLVIWAVIRIGPNGCDSMEFHESGLLRFKQVSDMGVIHPLYKSTVGGRRNENLVITGNNQPIVFQQGTTKLSVENNKTSITSDIGMQFFDPRTQNILFSTDYETHEFHLPSGVKSLNVQKASTERITSNATSDLNIKVDGRAIVRGNEGVFIMGKTIEFHMGGNMELKAENSIILNGSVMVSTTRLPSSSSGDQLGSGDWVRYKLCMCADGTLFKVQVTSQNMGCQISDNPCGNTH

Variants of: B1
Experiment: SGCB cell-surface expression functional score (HA stain, bin4 vs bin1, normalised to synonymous) (log10 ratio); higher = more cell-surface SGCB (functional)
How it was run: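 The functional score is a log ratio of variant frequency in the highest versus the lowest intensity bin, expressed as a median over codons and duplicate transductions. Codon-saturation libraries of HA-tagged, YFP-fused human beta-sarcoglycan were transduced by lentivirus at MOI <0.1 into HEK293 cells stably expressing alpha-, gamma- and delta-sarcoglycan, and the cells were stained on ice with Alexa Fluor 647 anti-HA, fixed and sorted into four 5% intensity bins before amplicon sequencing. Synonymous variants were scaled to mean 0, SD 0.5 within each section.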

Variant | SGCB cell-surface expression functional score (log10)
MAAAAAAAAEQQSSNGPVKKSMREKAVERRSVNKEHNSNFKAGYIPIDEDRLHKTGLRGRKGNLAICVIILLFILAVINLIITLVIWAVIRIGPNGCDSMEFHESGLLRFKQVSDMGVIHPLYKSTVGGRRNENLVITGNNQPIVFQQGTTKLSVENNKTSITSDIGMQFFDPRTQNILFSTDYETHEFHLPSGVKSLNVQKASTERITSNATSDLNIKVDGRAIVEGNEGVFIMGKTIEFHMGGNMELKAENSIILNGSVMVSTTRLPSSSSGDQLGSGDWVRYKLCMCADGTLFKVQVTSQNMGCQISDNPCGNTH [R227E] | 1.04
MAAAAAAAAEQQSSNGPVKKSMREKAVERRSVNKEHNSNFKAGYIPIDEDRLHKTGLRGRKGNLAICVIILLFILAVINLIITLVIWAVIRIGPNGCDSMEFHESGLLRFKQVSDMGVIHPLYKSTVGGRRNENLVITGNNQPIVFQQGTTKLSVENNKTSITSDIGMQFFDPRTQNILFSTDYETHEFHLPSGVKSLNVQKASTERITSNATSDLNIKVDGRAIVIGNEGVFIMGKTIEFHMGGNMELKAENSIILNGSVMVSTTRLPSSSSGDQLGSGDWVRYKLCMCADGTLFKVQVTSQNMGCQISDNPCGNTH [R227I] | -0.01
MAAAAAAAAEQQSSNGPVKKSMREKAVERRSVNKEHNSNFKAGYIPIDEDRLHKTGLRGRKGNLAICVIILLFILAVINLIITLVIWAVIRIGPNGCDSMEFHESGLLRFKQVSDMGVIHPLYKSTVGGRRNENLVITGNNQPIVFQQGTTKLSVENNKTSITSDIGMQFFDPRTQNILFSTDYETHEFHLPSGVKSLNVQKASTERITSNATSDLNIKVDGRAIVKGNEGVFIMGKTIEFHMGGNMELKAENSIILNGSVMVSTTRLPSSSSGDQLGSGDWVRYKLCMCADGTLFKVQVTSQNMGCQISDNPCGNTH [R227K] | 1.05
MAAAAAAAAEQQSSNGPVKKSMREKAVERRSVNKEHNSNFKAGYIPIDEDRLHKTGLRGRKGNLAICVIILLFILAVINLIITLVIWAVIRIGPNGCDSMEFHESGLLRFKQVSDMGVIHPLYKSTVGGRRNENLVITGNNQPIVFQQGTTKLSVENNKTSITSDIGMQFFDPRTQNILFSTDYETHEFHLPSGVKSLNVQKASTERITSNATSDLNIKVDGRAIVLGNEGVFIMGKTIEFHMGGNMELKAENSIILNGSVMVSTTRLPSSSSGDQLGSGDWVRYKLCMCADGTLFKVQVTSQNMGCQISDNPCGNTH [R227L] | 0.68
MAAAAAAAAEQQSSNGPVKKSMREKAVERRSVNKEHNSNFKAGYIPIDEDRLHKTGLRGRKGNLAICVIILLFILAVINLIITLVIWAVIRIGPNGCDSMEFHESGLLRFKQVSDMGVIHPLYKSTVGGRRNENLVITGNNQPIVFQQGTTKLSVENNKTSITSDIGMQFFDPRTQNILFSTDYETHEFHLPSGVKSLNVQKASTERITSNATSDLNIKVDGRAIVDGNEGVFIMGKTIEFHMGGNMELKAENSIILNGSVMVSTTRLPSSSSGDQLGSGDWVRYKLCMCADGTLFKVQVTSQNMGCQISDNPCGNTH [R227D] | 0.42
MAAAAAAAAEQQSSNGPVKKSMREKAVERRSVNKEHNSNFKAGYIPIDEDRLHKTGLRGRKGNLAICVIILLFILAVINLIITLVIWAVIRIGPNGCDSMEFHESGLLRFKQVSDMGVIHPLYKSTVGGRRNENLVITGNNQPIVFQQGTTKLSVENNKTSITSDIGMQFFDPRTQNILFSTDYETHEFHLPSGVKSLNVQKASTERITSNATSDLNIKVDGRAIVCGNEGVFIMGKTIEFHMGGNMELKAENSIILNGSVMVSTTRLPSSSSGDQLGSGDWVRYKLCMCADGTLFKVQVTSQNMGCQISDNPCGNTH [R227C] | 0.03
MAAAAAAAAEQQSSNGPVKKSMREKAVERRSVNKEHNSNFKAGYIPIDEDRLHKTGLRGRKGNLAICVIILLFILAVINLIITLVIWAVIRIGPNGCDSMEFHESGLLRFKQVSDMGVIHPLYKSTVGGRRNENLVITGNNQPIVFQQGTTKLSVENNKTSITSDIGMQFFDPRTQNILFSTDYETHEFHLPSGVKSLNVQKASTERITSNATSDLNIKVDGRAIVGGNEGVFIMGKTIEFHMGGNMELKAENSIILNGSVMVSTTRLPSSSSGDQLGSGDWVRYKLCMCADGTLFKVQVTSQNMGCQISDNPCGNTH [R227G] | 0.48
MAAAAAAAAEQQSSNGPVKKSMREKAVERRSVNKEHNSNFKAGYIPIDEDRLHKTGLRGRKGNLAICVIILLFILAVINLIITLVIWAVIRIGPNGCDSMEFHESGLLRFKQVSDMGVIHPLYKSTVGGRRNENLVITGNNQPIVFQQGTTKLSVENNKTSITSDIGMQFFDPRTQNILFSTDYETHEFHLPSGVKSLNVQKASTERITSNATSDLNIKVDGRAIVFGNEGVFIMGKTIEFHMGGNMELKAENSIILNGSVMVSTTRLPSSSSGDQLGSGDWVRYKLCMCADGTLFKVQVTSQNMGCQISDNPCGNTH [R227F] | -0.49
MAAAAAAAAEQQSSNGPVKKSMREKAVERRSVNKEHNSNFKAGYIPIDEDRLHKTGLRGRKGNLAICVIILLFILAVINLIITLVIWAVIRIGPNGCDSMEFHESGLLRFKQVSDMGVIHPLYKSTVGGRRNENLVITGNNQPIVFQQGTTKLSVENNKTSITSDIGMQFFDPRTQNILFSTDYETHEFHLPSGVKSLNVQKASTERITSNATSDLNIKVDGRAIVAGNEGVFIMGKTIEFHMGGNMELKAENSIILNGSVMVSTTRLPSSSSGDQLGSGDWVRYKLCMCADGTLFKVQVTSQNMGCQISDNPCGNTH [R227A] | 0.72
MAAAAAAAAEQQSSNGPVKKSMREKAVERRSVNKEHNSNFKAGYIPIDEDRLHKTGLRGRKGNLAICVIILLFILAVINLIITLVIWAVIRIGPNGCDSMEFHESGLLRFKQVSDMGVIHPLYKSTVGGRRNENLVITGNNQPIVFQQGTTKLSVENNKTSITSDIGMQFFDPRTQNILFSTDYETHEFHLPSGVKSLNVQKASTERITSNATSDLNIKVDGRAIVHGNEGVFIMGKTIEFHMGGNMELKAENSIILNGSVMVSTTRLPSSSSGDQLGSGDWVRYKLCMCADGTLFKVQVTSQNMGCQISDNPCGNTH [R227H] | 0.55
MAAAAAAAAEQQSSNGPVKKSMREKAVERRSVNKEHNSNFKAGYIPIDEDRLHKTGLRGRKGNLAICVIILLFILAVINLIITLVIWAVIRIGPNGCDSMEFHESGLLRFKQVSDMGVIHPLYKSTVGGRRNENLVITGNNQPIVFQQGTTKLSVENNKTSITSDIGMQFFDPRTQNILFSTDYETHEFHLPSGVKSLNVQKASTERITSNATSDLNIKVDGRAIMRGNEGVFIMGKTIEFHMGGNMELKAENSIILNGSVMVSTTRLPSSSSGDQLGSGDWVRYKLCMCADGTLFKVQVTSQNMGCQISDNPCGNTH [V226M] | 0.21
MAAAAAAAAEQQSSNGPVKKSMREKAVERRSVNKEHNSNFKAGYIPIDEDRLHKTGLRGRKGNLAICVIILLFILAVINLIITLVIWAVIRIGPNGCDSMEFHESGLLRFKQVSDMGVIHPLYKSTVGGRRNENLVITGNNQPIVFQQGTTKLSVENNKTSITSDIGMQFFDPRTQNILFSTDYETHEFHLPSGVKSLNVQKASTERITSNATSDLNIKVDGRAIWRGNEGVFIMGKTIEFHMGGNMELKAENSIILNGSVMVSTTRLPSSSSGDQLGSGDWVRYKLCMCADGTLFKVQVTSQNMGCQISDNPCGNTH [V226W] | -1.37
MAAAAAAAAEQQSSNGPVKKSMREKAVERRSVNKEHNSNFKAGYIPIDEDRLHKTGLRGRKGNLAICVIILLFILAVINLIITLVIWAVIRIGPNGCDSMEFHESGLLRFKQVSDMGVIHPLYKSTVGGRRNENLVITGNNQPIVFQQGTTKLSVENNKTSITSDIGMQFFDPRTQNILFSTDYETHEFHLPSGVKSLNVQKASTERITSNATSDLNIKVDGRAIPRGNEGVFIMGKTIEFHMGGNMELKAENSIILNGSVMVSTTRLPSSSSGDQLGSGDWVRYKLCMCADGTLFKVQVTSQNMGCQISDNPCGNTH [V226P] | -0.81
MAAAAAAAAEQQSSNGPVKKSMREKAVERRSVNKEHNSNFKAGYIPIDEDRLHKTGLRGRKGNLAICVIILLFILAVINLIITLVIWAVIRIGPNGCDSMEFHESGLLRFKQVSDMGVIHPLYKSTVGGRRNENLVITGNNQPIVFQQGTTKLSVENNKTSITSDIGMQFFDPRTQNILFSTDYETHEFHLPSGVKSLNVQKASTERITSNATSDLNIKVDGRAIQRGNEGVFIMGKTIEFHMGGNMELKAENSIILNGSVMVSTTRLPSSSSGDQLGSGDWVRYKLCMCADGTLFKVQVTSQNMGCQISDNPCGNTH [V226Q] | -0.68
MAAAAAAAAEQQSSNGPVKKSMREKAVERRSVNKEHNSNFKAGYIPIDEDRLHKTGLRGRKGNLAICVIILLFILAVINLIITLVIWAVIRIGPNGCDSMEFHESGLLRFKQVSDMGVIHPLYKSTVGGRRNENLVITGNNQPIVFQQGTTKLSVENNKTSITSDIGMQFFDPRTQNILFSTDYETHEFHLPSGVKSLNVQKASTERITSNATSDLNIKVDGRAITRGNEGVFIMGKTIEFHMGGNMELKAENSIILNGSVMVSTTRLPSSSSGDQLGSGDWVRYKLCMCADGTLFKVQVTSQNMGCQISDNPCGNTH [V226T] | 0.44
MAAAAAAAAEQQSSNGPVKKSMREKAVERRSVNKEHNSNFKAGYIPIDEDRLHKTGLRGRKGNLAICVIILLFILAVINLIITLVIWAVIRIGPNGCDSMEFHESGLLRFKQVSDMGVIHPLYKSTVGGRRNENLVITGNNQPIVFQQGTTKLSVENNKTSITSDIGMQFFDPRTQNILFSTDYETHEFHLPSGVKSLNVQKASTERITSNATSDLNIKVDGRAIYRGNEGVFIMGKTIEFHMGGNMELKAENSIILNGSVMVSTTRLPSSSSGDQLGSGDWVRYKLCMCADGTLFKVQVTSQNMGCQISDNPCGNTH [V226Y] | -0.87
MAAAAAAAAEQQSSNGPVKKSMREKAVERRSVNKEHNSNFKAGYIPIDEDRLHKTGLRGRKGNLAICVIILLFILAVINLIITLVIWAVIRIGPNGCDSMEFHESGLLRFKQVSDMGVIHPLYKSTVGGRRNENLVITGNNQPIVFQQGTTKLSVENNKTSITSDIGMQFFDPRTQNILFSTDYETHEFHLPSGVKSLNVQKASTERITSNATSDLNIKVDGRAINRGNEGVFIMGKTIEFHMGGNMELKAENSIILNGSVMVSTTRLPSSSSGDQLGSGDWVRYKLCMCADGTLFKVQVTSQNMGCQISDNPCGNTH [V226N] | -0.64
MAAAAAAAAEQQSSNGPVKKSMREKAVERRSVNKEHNSNFKAGYIPIDEDRLHKTGLRGRKGNLAICVIILLFILAVINLIITLVIWAVIRIGPNGCDSMEFHESGLLRFKQVSDMGVIHPLYKSTVGGRRNENLVITGNNQPIVFQQGTTKLSVENNKTSITSDIGMQFFDPRTQNILFSTDYETHEFHLPSGVKSLNVQKASTERITSNATSDLNIKVDGRAIRRGNEGVFIMGKTIEFHMGGNMELKAENSIILNGSVMVSTTRLPSSSSGDQLGSGDWVRYKLCMCADGTLFKVQVTSQNMGCQISDNPCGNTH [V226R] | -1.54
MAAAAAAAAEQQSSNGPVKKSMREKAVERRSVNKEHNSNFKAGYIPIDEDRLHKTGLRGRKGNLAICVIILLFILAVINLIITLVIWAVIRIGPNGCDSMEFHESGLLRFKQVSDMGVIHPLYKSTVGGRRNENLVITGNNQPIVFQQGTTKLSVENNKTSITSDIGMQFFDPRTQNILFSTDYETHEFHLPSGVKSLNVQKASTERITSNATSDLNIKVDGRAISRGNEGVFIMGKTIEFHMGGNMELKAENSIILNGSVMVSTTRLPSSSSGDQLGSGDWVRYKLCMCADGTLFKVQVTSQNMGCQISDNPCGNTH [V226S] | 0.01

From the supplement of paper PMC10266784
